B1: ALT102064.01 (ssRNA)
RNA: GGACGGAUUUAAUCGCCGUAGAAAAGCAUGUCAAAGCCGGAACCGUCC
modifications: 2'-F all C and U; 2'-OMe A7
B2: ALT102065.01 (ssRNA)
RNA: B1 RNA
modifications: 2'-F all C and U except 2'-OMe U8
B3: ALT102066.01 (ssRNA)
RNA: B1 RNA
modifications: 2'-F all C and U except 2'-OMe U9
B4: ALT102059.01 (ssRNA)
RNA: B1 RNA
modifications: 2'-F all C and U; 2'-OMe G2
B5: ALT102114.01 (ssRNA)
RNA: B1 RNA
modifications: 2'-F all C and U and G15
B6: ALT102097.01 (ssRNA)
RNA: B1 RNA
modifications: 2'-F all C and U; 2'-OMe G40
B7: ALT102075.01 (ssRNA)
RNA: B1 RNA
modifications: 2'-F all C and U; 2'-OMe G18
B8: ALT102107.01 (ssRNA)
RNA: B1 RNA
modifications: 2'-F all C and U and G2
B9: ALT102058.01 (ssRNA)
RNA: B1 RNA
modifications: 2'-F all C and U; 2'-OMe G1
B10: ALT102110.01 (ssRNA)
RNA: B1 RNA
modifications: 2'-F all C and U and G6
B11: ALT102072.01 (ssRNA)
RNA: B1 RNA
modifications: 2'-F all C and U; 2'-OMe G15
B12: ALT102125.01 (ssRNA)
RNA: B1 RNA
modifications: 2'-F all C and U and A33
B13: ALT102109.01 (ssRNA)
RNA: B1 RNA
modifications: 2'-F all C and U and G5
B14: ALT102094.01 (ssRNA)
RNA: B1 RNA
modifications: 2'-F all C and U except 2'-OMe C37
B15: ALT102121.01 (ssRNA)
RNA: B1 RNA
modifications: 2'-F all C and U and A25
B16: ALT102078.01 (ssRNA)
RNA: B1 RNA
modifications: 2'-F all C and U; 2'-OMe G21
B17: ALT102062.01 (ssRNA)
RNA: B1 RNA
modifications: 2'-F all C and U; 2'-OMe G5
B18: ALT102095.01 (ssRNA)
RNA: B1 RNA
modifications: 2'-F all C and U except 2'-OMe C38
B19: ALT102063.01 (ssRNA)
RNA: B1 RNA
modifications: 2'-F all C and U; 2'-OMe G6
B20: ALT102085.01 (ssRNA)
RNA: B1 RNA
modifications: 2'-F all C and U; 2'-OMe A28
B21: ALT102119.01 (ssRNA)
RNA: B1 RNA
modifications: 2'-F all C and U and A23
B22: ALT102098.01 (ssRNA)
RNA: B1 RNA
modifications: 2'-F all C and U; 2'-OMe A41
B23: ALT102087.01 (ssRNA)
RNA: B1 RNA
modifications: 2'-F all C and U; 2'-OMe G30
B24: ALT102060.01 (ssRNA)
RNA: B1 RNA
modifications: 2'-F all C and U; 2'-OMe A3
B25: ALT102080.01 (ssRNA)
RNA: B1 RNA
modifications: 2'-F all C and U; 2'-OMe A23
B26: ALT102118.01 (ssRNA)
RNA: B1 RNA
modifications: 2'-F all C and U and A22
B27: ALT102090.01 (ssRNA)
RNA: B1 RNA
modifications: 2'-F all C and U; 2'-OMe A33
B28: ALT102096.01 (ssRNA)
RNA: B1 RNA
modifications: 2'-F all C and U; 2'-OMe G39
B29: ALT102120.01 (ssRNA)
RNA: B1 RNA
modifications: 2'-F all C and U and A24
B30: ALT102077.01 (ssRNA)
RNA: B1 RNA
modifications: 2'-F all C and U; 2'-OMe A20
B31: ALT102073.01 (ssRNA)
RNA: B1 RNA
modifications: 2'-F all C and U except 2'-OMe C16
B32: ALT102112.01 (ssRNA)
RNA: B1 RNA
modifications: 2'-F all C and U and A11
B33: ALT102083.01 (ssRNA)
RNA: B1 RNA
modifications: 2'-F all C and U; 2'-OMe G26
B34: ALT102076.01 (ssRNA)
RNA: B1 RNA
modifications: 2'-F all C and U except 2'-OMe U19
B35: ALT102105.01 (ssRNA)
RNA: B1 RNA
modifications: 2'-F all C and U except 2'-OMe C48
B36: ALT102117.01 (ssRNA)
RNA: B1 RNA
modifications: 2'-F all C and U and G21
B37: ALT102111.01 (ssRNA)
RNA: B1 RNA
modifications: 2'-F all C and U and A7
B38: ALT102122.01 (ssRNA)
RNA: B1 RNA
modifications: 2'-F all C and U and G26
B39: ALT102103.01 (ssRNA)
RNA: B1 RNA
modifications: 2'-F all C and U except 2'-OMe U46
B40: ALT102084.01 (ssRNA)
RNA: B1 RNA
modifications: 2'-F all C and U except 2'-OMe C27
B41: ALT102081.01 (ssRNA)
RNA: B1 RNA
modifications: 2'-F all C and U; 2'-OMe A24
B42: ALT102093.01 (ssRNA)
RNA: B1 RNA
modifications: 2'-F all C and U; 2'-OMe G36
B43: ALT102108.01 (ssRNA)
RNA: B1 RNA
modifications: 2'-F all C and U and A3
B44: ALT102102.01 (ssRNA)
RNA: B1 RNA
modifications: 2'-F all C and U; 2'-OMe G45
B45: ALT102061.01 (ssRNA)
RNA: B1 RNA
modifications: 2'-F all C and U except 2'-OMe C4
B46: ALT102116.01 (ssRNA)
RNA: B1 RNA
modifications: 2'-F all C and U and A20
B47: ALT102123.01 (ssRNA)
RNA: B1 RNA
modifications: 2'-F all C and U and A28
B48: ALT102104.01 (ssRNA)
RNA: B1 RNA
modifications: 2'-F all C and U except 2'-OMe C47

The data set has as its target EGFR (UniProt P00533 P00533:25-645). Put plainly: SPR; PBS, 5 mM MgCl2, 20 C. Particulars: tags: R&D Systems; amine-coupled to sensor chip; label: 5' biotin. The protocol: Aptamer binding to EGFR recombinant protein was assessed by surface plasmon resonance (SPR). SPR experiments were performed on a 404pi system (BiOptix, Boulder, Colo.), at a constant temperature of 20° C., 20 μL min⁻¹ flow rate, using running buffer (degassed PBS, 5 mM MgCl₂, 0.05% Tween) for all coupling and capture steps. 0.1 M N-hydroxysuccinimide (NHS) in MOPS, 0.4 M 1-ethyl-3-(3-dimethylaminopropyl) carbodiimide hydrochloride (EDC), 1 M ethanolamine hydrochloride (pH 8.5) and 10 mM sodium acetate pH 4.5, were from Sigma (St. Louis, Mo.). EGFR was obtained from R&D Systems (Minneapolis, Minn.). Three 96 well plates of oligonucleotides were synthesized by solid phase phosphoramidite chemistry by Boston Open Labs (Cambridge, Mass.) with a 5′ biotin.
The surface in all four channels of a CDM150 sensor chip (BiOptix) was activated by injecting 140 μL of a 1:1 mixture (v/v) of EDC and NHS. Then 350 μL of 285 nM EGFR in 10 mM sodium acetate pH 4.5 was injected in all 4 channels and covalently bound to a density of ˜8000 Response Units (RU) over 1050 sec. Finally, the surface was blocked by an injection of 200 μL 1 M ethanolamine hydrochloride.
In general terms: Surface plasmon resonance follows binding to a sensor surface in real time, without labels.
With B1, the binding result was “binds”.

With B2, the binding result is given as “binds”.

Regarding B3, the binding result is “binds”.

Consider B4, for which the binding result was “binds”.

In the case of B5, the binding result is given as “binds”.

As for B6, the binding result is listed as “binds”.

On to B7, for which the binding result was “binds”.

Turning to B8, the binding result is recorded as “binds”.

For the molecule B9, the binding result was “binds”.

B10: the binding result was “binds”.

On to B11, for which the binding result is “binds”.

B12: the binding result is listed as “binds”.

B13: the binding result was “binds”.

Take B14: the binding result is reported as “binds”.

For B15, the binding result was “binds”.

As to B16, the binding result was “binds”.

As to B17, the binding result is “binds”.

As to B18, the binding result is “binds”.

For B19, the binding result is “binds”.

In the case of B20, the binding result is on record as “binds”.

B21: the binding result is “binds”.

For the molecule B22, the binding result is “binds”.

Consider B23, for which the binding result is listed as “binds”.

Take B24: the binding result is on record as “binds”.

Turning to B25, the binding result is given as “binds”.

As to B26, the binding result is on record as “binds”.

On to B27, for which the binding result is “binds”.

Consider B28, for which the binding result is “binds”.

Regarding B29, the binding result is “binds”.

With B30, the binding result is “binds”.

As to B31, the binding result is listed as “binds”.

Consider B32, for which the binding result was “binds”.

With B33, the binding result is reported as “binds”.

On to B34, for which the binding result was “binds”.

Consider B35, for which the binding result was “binds”.

For the molecule B36, the binding result is on record as “binds”.

With B37, the binding result was “binds”.

In the case of B38, the binding result is on record as “binds”.

Consider B39, for which the binding result is “binds”.

For the molecule B40, the binding result is listed as “binds”.

As to B41, the binding result is “binds”.

As to B42, the binding result is listed as “binds”.

In the case of B43, the binding result was “binds”.

Turning to B44, the binding result is on record as “binds”.

Regarding B45, the binding result was “binds”.

As to B46, the binding result is “binds”.

For the molecule B47, the binding result is on record as “binds”.

As to B48, the binding result was “binds”.

The values are drawn from US20170130226, “APTAMERS AGAINST EGFR AND THERAPEUTIC USES THEREOF” (ALTERMUNE LIMITED, published 2017).
